Assay results published in the supplement of paper PMC5998384.

Assays:
HeLa Kyoto [1] = test: melting temperature (median over replicates), in situ; higher = more thermally stable
HeLa Kyoto [2] = test: thermal stability score vs G1/S (z-score of summed log2 fold changes over temperatures); higher = more thermally stable than in G1/S
HeLa Kyoto [3] = test: solubility in G1/S (NP-40 vs SDS abundance) (log2 ratio); higher = more soluble; conditions: cell cycle stage: G1/S
HeLa Kyoto [4] = test: solubility change mitosis vs G1/S (difference of NP-40 vs SDS log2 ratios) (log2 ratio difference); higher = more soluble in mitosis
[5] = cell cycle stage: early G1 (4.5 h after nocodazole release)
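For melting temperature (median over replicates), in situ in this document: HeLa Kyoto cells synchronized by double thymidine or nocodazole block, proteins quantified by TMT10plex mass spectrometry, three independent biological replicates.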
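For solubility change mitosis vs G1/S (difference of NP-40 vs SDS log2 ratios) in this document: synchronized HeLa Kyoto cells (double thymidine block for G1/S, nocodazole release for mitosis), protein amounts in NP-40 versus SDS lysates quantified by mass spectrometry, three biological replicates.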
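For solubility in G1/S (NP-40 vs SDS abundance) in this document: HeLa Kyoto cells arrested at G1/S by double thymidine block, proteins quantified by TMT10plex mass spectrometry in mild NP-40 versus SDS extracts, three biological replicates.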
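For thermal stability score vs G1/S (z-score of summed log2 fold changes over temperatures) in this document: synchronized HeLa Kyoto cells, proteins quantified by TMT10plex mass spectrometry, three biological replicates, mitosis taken 0.5 h after nocodazole release, G1/S directly after double thymidine block.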

## MGKKYKNIVLLKGLEVINDYHFRMVKSLLSNDLKLNLKMREEYDKIQIADLMEEKFRGDAGLGKLIKIFEDIPTLEDLAETLKKEKLKVKGPALSRKRKKEVDATSPAPSTSSTVKTEGAEATPGAQKRKKSTKEKAGPKGSKVSEEQTQPPSPAGAGMSTAMGRSPSPKTSLSAPPNSSSTENPKTVAKCQVTPRRNVLQKRPVIVKVLSTTKPFEYETPEMEKKIMFHATVATQTQFFHVKVLNTSLKEKFNGKKIIIISDYLEYDSLLEVNEESTVSEAGPNQTFEVPNKIINRAKETLKIDILHKQASGNIVYGVFMLHKKTVNQKTTIYEIQDDRGKMDVVGTGQCHNIPCEEGDKLQLFCFRLRKKNQMSKLISEMHSFIQIKKKTNPRNNDPKSMKLPQEQRQLPYPSEASTTFPESHLRTPQMPPTTPSSSFFTKKSEDTISKMNDFMRMQILKEGSHFPGPFMTSIGPAESHPHTPQMPPSTPSSSFLTTKSEDTISKMNDFMRMQILKEGSHFPGPFMTSIGPAESHPHTPQMPPSTPSSSFLTTLKPRLKTEPEEVSIEDSAQSDLKEVMVLNATESFVYEPKEQKKMFHATVATENEVFRVKVFNIDLKEKFTPKKIIAIANYVCRNGFLEVYPFTLVADVNADRNMEIPKGLIRSASVTPKINQLCSQTKGSFVNGVFEVHKKNVRGEFTYYEIQDNTGKMEVVVHGRLTTINCEEGDKLKLTCFELAPKSGNTGELRSVIHSHIKVIKTRKNKKDILNPDSSMETSPDFFF [IFI16]
HeLa Kyoto [1]; cell cycle stage: G1/S
  melting temperature: 46.8 °C
HeLa Kyoto [1]; cell cycle stage: mitosis
  melting temperature: 49.1 °C
HeLa Kyoto [2]; [5]
  thermal stability score: 3.09
HeLa Kyoto [2]; cell cycle stage: mitosis
  thermal stability score: 5.43
HeLa Kyoto [3]
  solubility in G1/S (log2): -0.293
HeLa Kyoto [4]
  solubility change mitosis (log2): 0.318

## MSGQPPPPPPQQQQQQQQLSPPPPAALAPVSGVVLPAPPAVSAGSSPAGSPGGGAGGEGLGAAAAALLLHPPPPPPPATAAPPPPPPPPPPPASAAAPASGPPAPPGLAAGPGPAGGAPTPALVAGSSAAAPFPHGDSALNEQEKELQRRLKRLYPAVDEQETPLPRSWSPKDKFSYIGLSQNNLRVHYKGHGKTPKDAASVRATHPIPAACGIYYFEVKIVSKGRDGYMGIGLSAQGVNMNRLPGWDKHSYGYHGDDGHSFCSSGTGQPYGPTFTTGDVIGCCVNLINNTCFYTKNGHSLGIAFTDLPPNLYPTVGLQTPGEVVDANFGQHPFVFDIEDYMREWRTKIQAQIDRFPIGDREGEWQTMIQKMVSSYLVHHGYCATAEAFARSTDQTVLEELASIKNRQRIQKLVLAGRMGEAIETTQQLYPSLLERNPNLLFTLKVRQFIEMVNGTDSEVRCLGGRSPKSQDSYPVSPRPFSSPSMSPSHGMNIHNLASGKGSTAHFSGFESCSNGVISNKAHQSYCHSNKHQSSNLNVPELNSINMSRSQQVNNFTSNDVDMETDHYSNGVGETSSNGFLNGSSKHDHEMEDCDTEMEVDSSQLRRQLCGGSQAAIERMIHFGRELQAMSEQLRRDCGKNTANKKMLKDAFSLLAYSDPWNSPVGNQLDPIQREPVCSALNSAILETHNLPKQPPLALAMGQATQCLGLMARSGIGSCAFATVEDYLH [RANBP9]
HeLa Kyoto [1]; cell cycle stage: G1/S
  melting temperature: 51.6 °C
HeLa Kyoto [1]; cell cycle stage: mitosis
  melting temperature: 51.1 °C
HeLa Kyoto [2]; [5]
  thermal stability score: -0.277
HeLa Kyoto [2]; cell cycle stage: mitosis
  thermal stability score: -0.378
HeLa Kyoto [3]
  solubility in G1/S (log2): 0.115
HeLa Kyoto [4]
  solubility change mitosis (log2): -0.126

## MDSEAFQSARDFLDMNFQSLAMKHMDLKQMELDTAAAKVDELTKQLESLWSDSPAPPGPQAGPPSRPPRYSSSSIPEPFGSRGSPRKAATDGADTPFGRSESAPTLHPYSPLSPKGRPSSPRTPLYLQPDAYGSLDRATSPRPRAFDGAGSSLGRAPSPRPGPGPLRQQGPPTPFDFLGRAGSPRGSPLAEGPQAFFPERGPSPRPPATAYDAPASAFGSSLLGSGGSAFAPPLRAQDDLTLRRRPPKAWNESDLDVAYEKKPSQTASYERLDVFARPASPSLQLLPWRESSLDGLGGTGKDNLTSATLPRNYKVSPLASDRRSDAGSYRRSLGSAGPSGTLPRSWQPVSRIPMPPSSPQPRGAPRQRPIPLSMIFKLQNAFWEHGASRAMLPGSPLFTRAPPPKLQPQPQPQPQPQSQPQPQLPPQPQTQPQTPTPAPQHPQQTWPPVNEGPPKPPTELEPEPEIEGLLTPVLEAGDVDEGPVARPLSPTRLQPALPPEAQSVPELEEVARVLAEIPRPLKRRGSMEQAPAVALPPTHKKQYQQIISRLFHRHGGPGPGGPEPELSPITEGSEARAGPPAPAPPAPIPPPAPSQSSPPEQPQSMEMRSVLRKAGSPRKARRARLNPLVLLLDAALTGELEVVQQAVKEMNDPSQPNEEGITALHNAICGANYSIVDFLITAGANVNSPDSHGWTPLHCAASCNDTVICMALVQHGAAIFATTLSDGATAFEKCDPYREGYADCATYLADVEQSMGLMNSGAVYALWDYSAEFGDELSFREGESVTVLRRDGPEETDWWWAALHGQEGYVPRNYFGLFPRVKPQRSKV [PPP1R13L]
HeLa Kyoto [1]; cell cycle stage: G1/S
  melting temperature: 51.2 °C
HeLa Kyoto [1]; cell cycle stage: mitosis
  melting temperature: 51.5 °C
HeLa Kyoto [2]; [5]
  thermal stability score: -0.761
HeLa Kyoto [2]; cell cycle stage: mitosis
  thermal stability score: 0.0817
HeLa Kyoto [3]
  solubility in G1/S (log2): 0.09
HeLa Kyoto [4]
  solubility change mitosis (log2): 0.0483

## MKSLKSRLRRQDVPGPASSGAAAASAHAADWNKYDDRLMKAAERGDVEKVTSILAKKGVNPGKLDVEGRSVFHVVTSKGNLECLNAILIHGVDITTSDTAGRNALHLAAKYGHALCLQKLLQYNCPTEHADLQGRTALHDAAMADCPSSIQLLCDHGASVNAKDVDGRTPLVLATQMSRPTICQLLIDRGADVNSRDKQNRTALMLGCEYGCRDAVEVLIKNGADISLLDALGHDSSYYARIGDNLDILTLLKTASENTNKGRELWKKGPSLQQRNLTHMQDEVNVKSHQREHQNIQDLEIENEDLKERLRKIQQEQRILLDKVNGLQLQLNEEVMVADDLESEREKLKSLLAAKEKQHEESLRTIEALKNRFKYFESDHLGSGSHFSNRKEDMLLKQGQMYMADSQCTSPGIPAHMQSRSMLRPLELSLPSQTSYSENEILKKELEAMRTFCESAKQDRLKLQNELAHKVAECKALALECERVKEDSDEQIKQLEDALKDVQKRMYESEGKVKQMQTHFLALKEHLTSEAASGNHRLTEELKDQLKDLKVKYEGASAEVGKLRNQIKQNEMIVEEFKRDEGKLIEENKRLQKELSMCEMEREKKGRKVTEMEGQAKELSAKLALSIPAEKFENMKSSLSNEVNEKAKKLVEMEREHEKSLSEIRQLKRELENVKAKLAQHVKPEEHEQVKSRLEQKSGELGKKITELTLKNQTLQKEIEKVYLDNKLLKEQAHNLTIEMKNHYVPLKVSEDMKKSHDAIIDDLNRKLLDVTQKYTEKKLEMEKLLLENDSLSKDVSRLETVFVPPEKHEKEIIALKSNIVELKKQLSELKKKCGEDQEKIHALTSENTNLKKMMSNQYVPVKTHEEVKMTLNDTLAKTNRELLDVKKKFEDINQEFVKIKDKNEILKRNLENTQNQIKAEYISLAEHEAKMSSLSQSMRKVQDSNAEILANYRKGQEEIVTLHAEIKAQKKELDTIQECIKVKYAPIVSFEECERKFKATEKELKDQLSEQTQKYSVSEEEVKKNKQENDKLKKEIFTLQKDLRDKTVLIEKSHEMERALSRKTDELNKQLKDLSQKYTEVKNVKEKLVEENAKQTSEILAVQNLLQKQHVPLEQVEALKKSLNGTIENLKEELKSMQRCYEKEQQTVTKLHQLLENQKNSSVPLAEHLQIKEAFEKEVGIIKASLREKEEESQNKMEEVSKLQSEVQNTKQALKKLETREVVDLSKYKATKSDLETQISSLNEKLANLNRKYEEVCEEVLHAKKKEISAKDEKELLHFSIEQEIKDQKERCDKSLTTITELQRRIQESAKQIEAKDNKITELLNDVERLKQALNGLSQLTYTSGNPTKRQSQLIDTLQHQVKSLEQQLADADRQHQEVIAIYRTHLLSAAQGHMDEDVQEALLQIIQMRQGLVC [UACA]
HeLa Kyoto [1]; cell cycle stage: G1/S
  melting temperature: 48.5 °C
HeLa Kyoto [1]; cell cycle stage: mitosis
  melting temperature: 50.6 °C
HeLa Kyoto [2]; [5]
  thermal stability score: 1.19
HeLa Kyoto [2]; cell cycle stage: mitosis
  thermal stability score: 0.0635
HeLa Kyoto [3]
  solubility in G1/S (log2): 0.233
HeLa Kyoto [4]
  solubility change mitosis (log2): -0.0155

## MNSMKTEENKSFSAMEDDQRTRPEVSKDTVMKQTHADTPVDHCLSGIRKCSSTFKLKSEVNKHETALEMQNPNLNNKECCFTFTLNGNSRKLDRSVFTAYGKPSESIYSALSANDYFSERIKNQFNKNIIVYEEKTIDGHINLGMPLKCLPSDSHFKITFGQRKSSKEDGHILRQCENPNMECILFHVVAIGRTRKKIVKINELHEKGSKLCIYALKGETIEGALCKDGRFRSDIGEFEWKLKEGHKKIYGKQSMVDEVSGKVLEMDISKKKALQQKDIHKKIKQNESATDEINHQSLIQSKKKVHKPKKDGETKDVEHSREQILPPQDLSHYIKDKTRQTIPRIRNYYFCSLPRKYRQINSQVRRRPHLGRRYAINLDVQKEAINLLKNYQTLNEAIMHQYPNFKEEAQWVRKYFREEQKRMNLSPAKQFNIYKKDFGKMTANSVSVATCEQLTYYSKSVGFMQWDNNGNTGNATCFVFNGGYIFTCRHVVHLMVGKNTHPSLWPDIISKCAKVTFTYTEFCPTPDNWFSIEPWLKVSNENLDYAILKLKENGNAFPPGLWRQISPQPSTGLIYLIGHPEGQIKKIDGCTVIPLNERLKKYPNDCQDGLVDLYDTTSNVYCMFTQRSFLSEVWNTHTLSYDTCFSDGSSGSPVFNASGKLVALHTFGLFYQRGFNVHALIEFGYSMDSILCDIKKTNESLYKSLNDEKLETYDEEKGKQESSLQDHQIEPMEC [FAM111B]
HeLa Kyoto [1]; cell cycle stage: G1/S
  melting temperature: 46.9 °C
HeLa Kyoto [1]; cell cycle stage: mitosis
  melting temperature: 50.3 °C
HeLa Kyoto [2]; [5]
  thermal stability score: 2.69
HeLa Kyoto [2]; cell cycle stage: mitosis
  thermal stability score: 4.09
HeLa Kyoto [3]
  solubility in G1/S (log2): -0.274
HeLa Kyoto [4]
  solubility change mitosis (log2): -7.96e-05

## MGGKNKKHKAPAAAVVRAAVSASRAKSAEAGIAGEAQSKKPVSRPATAAAAAAGSREPRVKQGPKIYSFNSTNDSSGPANLDKSILKVVINNKLEQRIIGVINEHKKQNNDKGMISGRLTAKKLQDLYMALQAFSFKTKDIEDAMTNTLLYGGDLHSALDWLCLNLSDDALPEGFSQEFEEQQPKSRPKFQSPQIQATISPPLQPKTKTYEEDPKSKPKKEEKNMEVNMKEWILRYAEQQNEEEKNENSKSLEEEEKFDPNERYLHLAAKLLDAKEQAATFKLEKNKQGQKEAQEKIRKFQREMETLEDHPVFNPAMKISHQQNERKKPPVATEGESALNFNLFEKSAAATEEEKDKKKEPHDVRNFDYTARSWTGKSPKQFLIDWVRKNLPKSPNPSFEKVPVGRYWKCRVRVIKSEDDVLVVCPTILTEDGMQAQHLGATLALYRLVKGQSVHQLLPPTYRDVWLEWSDAEKKREELNKMETNKPRDLFIAKLLNKLKQQQQQQQQHSENKRENSEDPEESWENLVSDEDFSALSLESANVEDLEPVRNLFRKLQSTPKYQKLLKERQQLPVFKHRDSIVETLKRHRVVVVAGETGSGKSTQVPHFLLEDLLLNEWEASKCNIVCTQPRRISAVSLANRVCDELGCENGPGGRNSLCGYQIRMESRACESTRLLYCTTGVLLRKLQEDGLLSNVSHVIVDEVHERSVQSDFLLIILKEILQKRSDLHLILMSATVDSEKFSTYFTHCPILRISGRSYPVEVFHLEDIIEETGFVLEKDSEYCQKFLEEEEEVTINVTSKAGGIKKYQEYIPVQTGAHADLNPFYQKYSSRTQHAILYMNPHKINLDLILELLAYLDKSPQFRNIEGAVLIFLPGLAHIQQLYDLLSNDRRFYSERYKVIALHSILSTQDQAAAFTLPPPGVRKIVLATNIAETGITIPDVVFVIDTGRTKENKYHESSQMSSLVETFVSKASALQRQGRAGRVRDGFCFRMYTRERFEGFMDYSVPEILRVPLEELCLHIMKCNLGSPEDFLSKALDPPQLQVISNAMNLLRKIGACELNEPKLTPLGQHLAALPVNVKIGKMLIFGAIFGCLDPVATLAAVMTEKSPFTTPIGRKDEADLAKSALAMADSDHLTIYNAYLGWKKARQEGGYRSEITYCRRNFLNRTSLLTLEDVKQELIKLVKAAGFSSSTTSTSWEGNRASQTLSFQEIALLKAVLVAGLYDNVGKIIYTKSVDVTEKLACIVETAQGKAQVHPSSVNRDLQTHGWLLYQEKIRYARVYLRETTLITPFPVLLFGGDIEVQHRERLLSIDGWIYFQAPVKIAVIFKQLRVLIDSVLRKKLENPKMSLENDKILQIITELIKTENN [DHX29]
HeLa Kyoto [1]; cell cycle stage: G1/S
  melting temperature: 51.7 °C
HeLa Kyoto [1]; cell cycle stage: mitosis
  melting temperature: 50.7 °C
HeLa Kyoto [2]; [5]
  thermal stability score: -0.474
HeLa Kyoto [2]; cell cycle stage: mitosis
  thermal stability score: -0.738
HeLa Kyoto [3]
  solubility in G1/S (log2): -0.444
HeLa Kyoto [4]
  solubility change mitosis (log2): 0.00585
